Measured values as given in the supplement of paper PMC10126150.
± gives the standard deviation of the averaged measurements.

Test system: ATP
Test: switch fluorescence ratio, 500 uM ATP over buffer (Cy3 cluster intensity, sum of 5 cycles each) (fold (ratio)); higher = stronger signal-on switching upon ATP binding; sequences stand for … in TCGTCGGCAGCGTCAGATGTGTATAAGAGACAGTTTTTTTTTTTTTTTTTTTTTTTTT…TC
Details: aptamer strand: ATP DNA aptamer (quencher-CACCTGGGGGAGTATTGCGGAGGAAGG + anchor), 100 nM annealed; ATP concentration: 500 uM
Procedure, shortened: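 Clusters with intensities outside 100-1000 RFU were excluded. The remaining Cy3-labelled switching-strand clusters on a modified Illumina MiSeq flow-cell had been annealed to 100 nM quencher-labelled ATP aptamer and imaged in selection buffer, then after 15 min with 500 uM ATP at 22 °C, for five cycles separated by NaOH stripping and re-annealing. The fluorescence ratio, averaged per switch-domain sequence, is each cluster's summed target-cycle Cy3 intensity over its summed buffer-cycle Cy3 intensity.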
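Note: ATP exposure 15 min at 22 °C before imaging.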

Sequence	switch fluorescence ratio
CGGGCGTCTC	0.996 ± 0.022
CGGGCTATGG	1 ± 0.023
CGGGCTGTTG	0.963 ± 0.033
CGGGGAAAGC	0.985 ± 0.027
CGGGGAAGTG	1 ± 0.019
CGGGGAATTT	1.01 ± 0.022
CGGGGAGTAT	0.975 ± 0.015
CGGGGATCGT	1 ± 0.032
CGGGGATGCA	1.03 ± 0.023
CGGGGATGTC	1.05 ± 0.014
CGGGGATTTC	1 ± 0.027
CGGGGATTTG	0.976 ± 0.032
CGGGGCGAAG	0.984 ± 0.038
CGGGGCGGGA	1.01 ± 0.021
CGGGGCTGAA	0.991 ± 0.0089
CGGGGGAATG	0.967 ± 0.027
CGGGGGACTG	1.04 ± 0.039
CGGGGGAGTA	0.996 ± 0.018
CGGGGGATGG	1.01 ± 0.045
CGGGGGCCGA	1 ± 0.019
CGGGGGGACG	1.01 ± 0.084
CGGGGGGCTC	0.99 ± 0.01
CGGGGGGTAC	1.03 ± 0.036
CGGGGGGTAG	0.995 ± 0.035
CGGGGGGTGG	1 ± 0.039

Sequence	switch fluorescence ratio
CGGGGGGTTT	1.01 ± 0.025
CGGGGGTACA	1.02 ± 0.019
CGGGGGTAGT	1.03 ± 0.015
CGGGGGTCGA	0.989 ± 0.031
CGGGGTAGTC	0.967 ± 0.07
CGGGGTATTT	1 ± 0.022
CGGGGTCGTT	1 ± 0.024
CGGGGTGAAA	0.983 ± 0.029
CGGGGTGCCT	0.999 ± 0.024
CGGGGTGTTA	1.07 ± 0.057
CGGGGTTACT	0.9961 ± 0.0082
CGGGGTTATT	0.989 ± 0.014
CGGGGTTTGC	0.997 ± 0.015
CGGGGTTTGG	0.999 ± 0.017
CGGGTAAGTA	1.03 ± 0.097
CGGGTAATCG	1.01 ± 0.0082
CGGGTAATTC	1.128 ± 0.0039
CGGGTACTTT	1 ± 0.059
CGGGTATTAA	0.994 ± 0.032
CGGGTATTCG	0.99 ± 0.03
CGGGTATTGG	0.97968 ± 0.00074
CGGGTCGGTT	1.07 ± 0.1
CGGGTCTAAA	0.9966 ± 0.0027
CGGGTCTATT	0.9649 ± 0.001
CGGGTCTTAG	1.01 ± 0.011

Sequence	switch fluorescence ratio
CGGGTGAGGA	1.04 ± 0.04
CGGGTGAGTA	1.05 ± 0.08
CGGGTGCAAG	1.03 ± 0.027
CGGGTGGCCT	1 ± 0.02
CGGGTGGCGA	1.02 ± 0.081
CGGGTGGGAA	0.9995 ± 0.0026
CGGGTGGGCA	0.945 ± 0.019
CGGGTGGGGA	1.01 ± 0.04
CGGGTGGGGC	1.02 ± 0.052
CGGGTGGGGG	1.07 ± 0.036
CGGGTGGGTA	1 ± 0.023
CGGGTTAAAA	0.9714 ± 0.0034
CGGGTTAATA	0.989 ± 0.022
CGGGTTAGGA	1.02 ± 0.036
CGGGTTAGTT	1.002 ± 0.01
CGGGTTCAGT	0.974 ± 0.014
CGGGTTCGTG	0.972 ± 0.029
CGGGTTCTGG	0.989 ± 0.014
CGGGTTGCCT	0.999 ± 0.028
CGGGTTGGGA	1.007 ± 0.0042
CGGGTTGTGT	1 ± 0.02
CGGGTTTCGC	0.986 ± 0.014
CGGGTTTGTG	0.973 ± 0.032
CGGGTTTTCC	1.03 ± 0.042
CGGGTTTTTT	0.988 ± 0.032

Sequence	switch fluorescence ratio
CGGTAACCGG	0.979 ± 0.0098
CGGTAAGGCA	0.99 ± 0.017
CGGTAAGTGG	0.988 ± 0.024
CGGTAATATC	1.915 ± 0.016
CGGTACCGTT	1.02 ± 0.049
CGGTACGGGT	0.992 ± 0.025
CGGTAGATCG	1 ± 0.073
CGGTAGGCGG	0.971 ± 0.018
CGGTATAAGT	0.9949 ± 0.0042
CGGTATTATG	0.993 ± 0.022
CGGTATTCCG	0.945 ± 0.017
CGGTATTCTT	0.9883 ± 0.0068
CGGTATTTAA	1.02 ± 0.046
CGGTATTTAC	1.04 ± 0.021
CGGTCAACAC	1.66 ± 0.15
CGGTCAAGAG	1.11 ± 0.019
CGGTCATAAG	0.982 ± 0.043
CGGTCCAATC	1.37 ± 0.052
CGGTCCCTGC	1.01 ± 0.1
CGGTCCGGGT	0.99721 ± 0.00018
CGGTCGGAGG	0.974 ± 0.023
CGGTCGGGGG	0.999 ± 0.032
CGGTCTGTGG	0.995 ± 0.021
CGGTCTGTT	0.9878 ± 0.0066
CGGTCTTCAT	0.9903 ± 0.00043

Sequence	switch fluorescence ratio
CGGTGAATTT	0.98263 ± 0.0009
CGGTGCGGGC	1 ± 0.09
CGGTGCTGGG	0.999 ± 0.04
CGGTGGAGGG	0.9849 ± 0.0091
CGGTGGATTC	1.0049 ± 0.00055
CGGTGGGCGA	0.987 ± 0.048
CGGTGGGGGG	1.04 ± 0.03
CGGTGGGTTG	0.969 ± 0.053
CGGTGGTTGC	1.03 ± 0.11
CGGTGTGGCT	0.97 ± 0.016
CGGTGTGTGG	0.999 ± 0.032
CGGTGTTGCC	0.971 ± 0.011
CGGTTAAAAA	0.982 ± 0.066
CGGTTAACCA	1.02 ± 0.021
CGGTTAACGG	1 ± 0.025
CGGTTAATTC	1.012 ± 0.0028
CGGTTAGGCG	1.06 ± 0.012
CGGTTATACT	1.25 ± 0.021
CGGTTATCCT	1.04 ± 0.032
CGGTTATGGA	0.999 ± 0.026
CGGTTCATCC	1.02 ± 0.014
CGGTTCCGTA	0.971 ± 0.047
CGGTTCGGAT	0.989 ± 0.017
CGGTTCGGTG	0.981 ± 0.014
CGGTTCGTTA	0.9795 ± 0.004

Sequence	switch fluorescence ratio
CGGTTGAGGT	0.999 ± 0.047
CGGTTGCGGA	0.995 ± 0.051
CGGTTGGCGG	0.996 ± 0.038
CGGTTGGGCT	1.01 ± 0.054
CGGTTGGGGC	1.11 ± 0.057
CGGTTGTAGC	1 ± 0.021
CGGTTGTAGT	0.993 ± 0.032
CGGTTTATGC	1.09 ± 0.052
CGGTTTGGGG	0.991 ± 0.027
CGGTTTGGGT	0.9931 ± 0.0043
CGGTTTTTAG	1.01 ± 0.044
CGGTTTTTTC	1.03 ± 0.027
CGTAAAATGA	0.992 ± 0.022
CGTAAATTGT	0.9672 ± 0.0039
CGTAAATTTA	0.975 ± 0.018
CGTAACGGGA	1.037 ± 0.0076
CGTAAGGCAG	1 ± 0.038
CGTAAGGGTT	1.008 ± 0.0063
CGTAAGTTTT	0.98 ± 0.03
CGTACGGGCG	0.956 ± 0.028
CGTACTCTCA	1.037 ± 0.006
CGTACTTTTT	1 ± 0.032
CGTAGACGGT	0.9592 ± 0.0063
CGTAGACTTG	0.9736 ± 0.005
CGTAGCACAG	1.3067 ± 0.0013

Sequence	switch fluorescence ratio
CGTAGCATCG	1.1 ± 0.038
CGTAGGGGGC	1.03 ± 0.023
CGTAGGGGGT	1.01 ± 0.03
CGTAGTAGGC	1.12 ± 0.1
CGTAGTGAAG	1.03 ± 0.037
CGTAGTGGAA	0.9919 ± 0.0061
CGTAGTTCGT	1.036 ± 0.0046
CGTATAGGAG	1.02 ± 0.045
CGTATAGGTG	1.06 ± 0.077
CGTATAGTTA	0.987 ± 0.022
CGTATATTAA	0.975 ± 0.068
CGTATCCACT	0.99569 ± 0.00085
CGTATCTGAC	1.04 ± 0.014
CGTATGGCCT	0.958 ± 0.01
CGTATGGGGC	0.948 ± 0.087
CGTATTGGGG	1.04 ± 0.017
CGTATTTCTT	0.989 ± 0.021
CGTATTTTT	0.99 ± 0.018
CGTCAAAAAC	1.38 ± 0.2
CGTCAATTGA	1.01 ± 0.036
CGTCACATAA	1.22 ± 0.016
CGTCAGGTGT	3.713 ± 0.012
CGTCATATTG	0.997 ± 0.027
CGTCATGGCT	0.957 ± 0.041
CGTCCAGCTT	1.51 ± 0.18

Sequence	switch fluorescence ratio
CGTCCGGCGC	1.346 ± 0.0029
CGTCCGGGGA	1.56 ± 0.075
CGTCCGGGGT	1.48 ± 0.62
CGTCCGGTCG	1.02 ± 0.064
CGTCCTGAGG	1.04 ± 0.019
CGTCCTTGTT	0.991 ± 0.029
CGTCCTTTTT	1.05 ± 0.039
CGTCGCGGGC	1.0404 ± 0.00051
CGTCGGGGAT	1 ± 0.037
CGTCGGGGCG	1.02 ± 0.036
CGTCTAAAC	1.13 ± 0.021
CGTCTAACGC	1.02 ± 0.029
CGTCTAAGCG	1 ± 0.086
CGTCTAGAGA	1.02 ± 0.073
CGTCTGGCTG	1 ± 0.057
CGTCTGGGGA	0.996 ± 0.048
CGTCTGTCTC	1.045 ± 0.005
CGTCTTATTA	0.9826 ± 0.0028
CGTCTTGGTG	0.999 ± 0.03
CGTGAACTCT	0.999 ± 0.016
CGTGAAGGGA	1.01 ± 0.026
CGTGAATAGT	1.03 ± 0.041
CGTGAATCTG	0.9669 ± 0.006
CGTGACGAGC	1.12 ± 0.062
CGTGATCCCC	1.17 ± 0.057
